Results on 29 molecules are retold here after patent publication US20190100594A1 (INHIBRX, published 2019).

Sequences and labels used below:
T1: GITR expressed on CHO cells (Homo sapiens (Human), UniProt Q9Y5U5 26-241)
T1 construct: also called glucocorticoid-induced TNFR-related protein; TNFRSF18
T1 sequence: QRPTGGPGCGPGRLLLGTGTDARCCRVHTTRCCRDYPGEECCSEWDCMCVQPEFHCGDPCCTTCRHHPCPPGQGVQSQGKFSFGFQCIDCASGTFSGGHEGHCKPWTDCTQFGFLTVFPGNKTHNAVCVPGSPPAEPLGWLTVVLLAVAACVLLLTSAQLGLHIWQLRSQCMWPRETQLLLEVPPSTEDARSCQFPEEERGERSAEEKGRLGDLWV

T2: human GITR-CHO (human, UniProt Q9Y5U5)
T2 construct: expressed on the surface of CHO cells, construct not described; also called human GITR expressed on the surface of CHO cells
T2 sequence (looked up): T1 sequence

B1: B2 (VHH, not shown: a dimerising Fc or GST; small tags and cut ends)
VHH: QVQLQESGGGLVQPGGSLRLSCAASGSVFSIDSMSWFRQAPGNERELVALITGGHTTTYGDSVKGRFTISRASAPNTVHLQMNSLQPEDTAVYYCNAAVSTGWGRNADDYWGQGTQVTVS
B2: hzC06v3.1 (VHH)
VHH: EVQLLESGGGEVQPGGSLRLSCAASGSVFSIDAMGWYRLAPGQQRELVAVLSGISSAKYAESVKGRFTISRDNAKNTLYLQMSSLRAEDTAVYYCYADVSTGWGRDAHGYWGQGTLVTV
B3: hzC06v3.5 (VHH)
VHH: B2 VHH with L39Q, Q43K, D72A, N73S, K75P
B4: hzC06v3.2 (VHH)
VHH: B2 VHH with L39Q, Q43K, E61D, R71G
B5: hzC06v3 (VHH)
VHH: B2 VHH with L39Q, Q43K
B6: hzC06v1.1 (VHH)
VHH: B2 VHH with L39Q, Q43K, Q44G, R45L, A49S, V50A, K58T
B7: hzC06v2.1 (VHH)
VHH: B2 VHH with L39Q, Q43K, Q44G, R45L, K58T
B8: hzC06v2.2 (VHH)
VHH: B2 VHH with L39Q, Q43K, Q44G, K58T
B9: hzC06v2.3 (VHH)
VHH: B2 VHH with L39Q, Q43K, K58T
B10: hzC06v1.3 (VHH)
VHH: B2 VHH with L39Q, Q43K, A49S, V50A, K58T
B11: hzC06v1.2 (VHH)
VHH: B2 VHH with L39Q, Q43K, Q44G, A49S, V50A, K58T
B12: hzC06v2.4 (VHH)
VHH: B2 VHH with L39Q, K58T
B13: hzC06v1.4 (VHH)
VHH: B2 VHH with L39Q, A49S, V50A, K58T
B14: hzCC04v5.5 (VHH)
VHH: EVQLLESGGGEVQPGGSLRLSCAASGFTFSTHGMDWFRQAPGKDLEWVSAIQSGGSWTSYASSVKGRFTISRDNAKNTLYLQMQQLRAEDTAVYWCQNRVTRGQGTLVTV
notes: sheet prints hzCC04, text hzC04; also called hzC04v5.5
B15: hzCC04v5.11 (VHH)
VHH: B14 VHH with Q84N
notes: sheet prints hzCC04, text hzC04; also called hzC04v5.11
B16: hzCC04v5.9 (VHH)
VHH: B14 VHH with Q84D, Q85D
notes: sheet prints hzCC04, text hzC04; also called hzC04v5.9
B17: hzCC04v5.7 (VHH)
VHH: B14 VHH with Q84D, Q85N
notes: sheet prints hzCC04, text hzC04; also called hzC04v5.7
B18: hzCC04v5.8 (VHH)
VHH: B14 VHH with Q84N, Q85D
notes: sheet prints hzCC04, text hzC04; also called hzC04v5.8
B19: hzCC04v5.10 (VHH)
VHH: B14 VHH with Q85D
notes: sheet prints hzCC04, text hzC04; also called hzC04v5.10
B20: hzCC04v5.6 (VHH)
VHH: B14 VHH with Q85N
notes: sheet prints hzCC04, text hzC04; also called hzC04v5.6
B21: hzCC04v5.12 (VHH)
VHH: B14 VHH with Q84S, Q85N
notes: sheet prints hzCC04, text hzC04; also called hzC04v5.12
B22: H11 (VHH, not shown: a dimerising Fc or GST)
VHH: B1 VHH with Q5V, E6Q, H55R, G60A, Q86K, A98V
B23: C4 (VHH, not shown: a dimerising Fc or GST)
VHH: B1 VHH with Q5V, E6Q, G16E, A40G, H55R, G60A, S73N, Q86K, N106S
B24: B7 (VHH, not shown: a dimerising Fc or GST)
VHH: B1 VHH with A40T, L50H, H55R, G60A, S84N, Q86K
B25: B5 (VHH, not shown: a dimerising Fc or GST)
VHH: B1 VHH with Q5V, E6Q, G16E, A40G, H55R, G60A, S73N, Q86E
B26: B12 (VHH, not shown: a dimerising Fc or GST)
VHH: QVQLQQSGGGLVQAGGSLRLSCAASGSIFSIDAMGWYRLAPGKQRELVAVIDGVSPNYADSVKGRFTISSDIAKNTVYLQMHSPKPEDTAVYYCNADVSTGWGRPADHYWGQGTQVTVS
B27: C7 (VHH, not shown: a dimerising Fc or GST)
VHH: QVQLQESGGGLVQAGGSLRLSCTASGSIFSIDDMGWYRLAPGKQRELVAVHSGSSTNYGDSVKGRFTISGDSAKNTVYLQMHRLEPEDTAVYYCYAAISSGWGRDAEDYWGQGTQVTVS
B28: hzC06v3.11 (VHH)
VHH: B2 VHH with L39Q, Q43K, E61D, S62A, K64E, D72A, N73S, K75P, L78V
B29: hzC06v3.8 (VHH)
VHH: B2 VHH with L39Q, Q43K, E61A, V63A, K64P, N73A, A74V, K75E, L78V

Residue numbers refer to the chain shown, from its start.

As usually defined, the EC50 (read off the curve) is the concentration that produces a half-maximal response. Lower therefore signals higher potency in that assay.

The first test concerns the target T1, GITR expressed on CHO cells. In words: flow cytometry on GITR-expressing CHO cells, MFI-FL4.
Take B1: the “EC50 (read off the curve)” value is approximately 0.7 nM.

Another test deals with T2, human GITR-CHO. In words: flow cytometry on human GITR-CHO cells.
B2: the “EC50 (read off the curve)” value was approximately 4 nM.
In the case of B3, the “EC50 (read off the curve)” value is approximately 4 nM.
As to B4, the “EC50 (read off the curve)” value was approximately 4 nM.

A further test concerns the target T2, human GITR-CHO. In words: flow cytometry on human GITR-CHO cells. The source holds these as a separate data set.
In the case of B5, the “EC50 (read off the curve)” value lay in the range of 1 to 2 nM.
For the molecule B6, the “EC50 (read off the curve)” value fell in the range of 1 to 2 nM.
The same measure, in the same setting: for B7 the value was 1 to 2 nM; for B8, 1 to 2 nM.
Still for that read-out and setting: for B9 the value was 1 to 2 nM; for B10, 1 to 2 nM.
For the molecule B11, the “EC50 (read off the curve)” value lay in the range of 1 to 2 nM.
The same measure, in the same setting: the value for B12 was 1 to 2 nM.
The same measure, in the same setting: the value for B13 was 1 to 2 nM.

The next test addresses T3, cyno GITR-CHO (cynomolgus monkey).
T3 construct: expressed on the surface of CHO cells, construct not described; also called cynomolgus GITR expressed on the surface of CHO cells
In words: flow cytometry on cyno GITR-CHO cells.
B14: the “EC50 (read off the curve)” value lay within 1 to 2 nM.
Still for that read-out and setting: for B15 the value was 1 to 2 nM.
On to B16, for which the “EC50 (read off the curve)” value fell in the range of 1 to 2 nM.
On to B17, for which the “EC50 (read off the curve)” value was 1 to 2 nM.
As to B18, the “EC50 (read off the curve)” value was in the range of 1 to 2 nM.
Still for that read-out and setting: the value for B19 was 1 to 2 nM; that for B20 was 1 to 2 nM; that for B21 was 1 to 2 nM.

The target in a further test is T1, GITR expressed on CHO cells. In words: flow cytometry on GITR-expressing CHO cells, MFI-FL4. The source holds these as a separate data set. (In general: A flow cytometer gives signals particle by particle.)
Regarding B22, the “EC50 (read off the curve)” value is 2 to 3 nM.
As to B23, the “EC50 (read off the curve)” value fell in the range of 2 to 3 nM.
On the same count and under the same terms, the value for B24 was approximately 3 nM.
In the case of B25, the “EC50 (read off the curve)” value is 2 to 3 nM.
With B26, the “EC50 (read off the curve)” value was approximately 4 nM.
Still for that read-out and setting: the value for B27 was approximately 2 nM.

The target of a further test is T3, cyno GITR-CHO. In words: flow cytometry on cyno GITR-CHO cells. The source holds these as a separate data set.
Regarding B6, the “EC50 (read off the curve)” value was approximately 8 nM.
Consider B8, for which the “EC50 (read off the curve)” value was approximately 4 nM.
Same read-out and setting: the value for B9 was approximately 4 nM; that for B10 was approximately 4 nM; that for B11 was approximately 4 nM.
Same read-out and setting: the value for B12 was approximately 4 nM; that for B13 was approximately 4 nM.

The target of another test is T2, human GITR-CHO. In words: flow cytometry on human GITR-CHO cells. This is another data set of the same source.
As to B14, the “EC50 (read off the curve)” value was approximately 2 nM.
On the same count and under the same terms, for B15 the value was approximately 2 nM; for B16, approximately 2 nM.
Consider B17, for which the “EC50 (read off the curve)” value was approximately 2 nM.
Regarding B18, the “EC50 (read off the curve)” value was approximately 2 nM.
Still for that read-out and setting: the value for B19 was approximately 2 nM; that for B20 was approximately 2 nM; that for B21 was approximately 2 nM.

Another test deals with T1, GITR expressed on CHO cells. In words: flow cytometry competition on GITR-expressing CHO cells; blocked ligand recombinant GITRL; readout GITRL bound, MFI-FL1. The text has this:
Briefly, in these studies, a flow cytometry assay using GITR expressing CHO cells and recombinant GITRL was used to implement to assess blocking capacity. The GITR antibody, TRX-518, was used as a control for these studies.
For B22, the “IC50 (read off the curve)” value lay in the range of 2 to 3 nM.
Same read-out and setting: the value for B1 was approximately 1 nM; that for B23 was 2 to 3 nM; that for B24 was approximately 3 nM.
With B25, the “IC50 (read off the curve)” value was in the range of 2 to 3 nM.
Same read-out and setting: for B26 the value was approximately 6 nM; for B27, 2 to 3 nM.

For a further test, the target named is T2, human GITR-CHO. In words: flow cytometry on human GITR-CHO cells. The source holds these as a separate data set.
Regarding B28, the “EC50 (read off the curve)” value lay in the range of 1 to 2 nM.
Take B29: the “EC50 (read off the curve)” value was in the range of 1 to 2 nM.
